Source: patent publication US9260500B2, “Peptide and use thereof” (Takeda Pharmaceutical Company Limited, priority 2009, dated 2016)
Non-standard residues stand in square brackets, D forms with d. *: point of attachment. X9 = (cis-2,6-dimethylmorpholin-4-yl)carbonyl, C[C@@H]1CN(C(=O)*)C[C@H](C)O1; X7 = (tetrahydro-2H-pyran-4-yl)carbamoyl, O=C(NC1CCOCC1)*; ((1S)-1-Carboxyethyl)carbamoyl = C[C@H](NC(=O)*)C(=O)O; Phe(2,6-Me2) = Cc1cccc(C)c1C[C@H](N)C(=O)O; Tetrahydropyran4carbonyl = O=C(C1CCOCC1)*; Imidazole4carbonyl = O=C(c1cnc[nH]1)*; Arg(Me) = CNC(=N)NCCC[C@H](N)C(=O)O; 4Pal = N[C@@H](Cc1ccncc1)C(=O)O; dHyp = O=C(O)[C@H]1C[C@H](O)CN1; Cha = N[C@@H](CC1CCCCC1)C(=O)O; Isonicotinoyl = O=C(c1ccncc1)*; Iva = CC[C@](C)(N)C(=O)O; Aib = CC(C)(N)C(=O)O

Legend:
male C57EL/6J mice = experiment: 3-Days Continuous Subcutaneous Administration Test-1 (food intake suppressing activity); assay type: in vivo, mouse; details: 0.03 mg/kg/day, subcutaneous Alzet pump, food consumption over 3 days; relative to food intake suppression rate for PYY(3-36) (1 mg/kg/day) taken as 100%
Procedure, shortened: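 Male […] mice, 12-13 weeks, received compound at 0.03 mg/kg/day by subcutaneous osmotic pump (50% DMSO vehicle), housed singly with free food access. Food consumed over 3 days measured; suppression expressed relative to PYY(3-36) (1 mg/kg/day) set as 100%.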

human Y2 receptor [1] = target: T1, human Y2 receptor (Homo sapiens, UniProt P49146); experiment: Human Y2 Receptor G Protein Binding Assay (GBA), [35S]GTPγS; assay type: biochemical; details: EC50 of test compound/EC50 of PYY(3-36) (PYY3-36 taken as 1), hY2R/CHO membrane fraction
T1 construct: expressed in transfected cells; membrane fraction
T1 sequence (P49146 1-381): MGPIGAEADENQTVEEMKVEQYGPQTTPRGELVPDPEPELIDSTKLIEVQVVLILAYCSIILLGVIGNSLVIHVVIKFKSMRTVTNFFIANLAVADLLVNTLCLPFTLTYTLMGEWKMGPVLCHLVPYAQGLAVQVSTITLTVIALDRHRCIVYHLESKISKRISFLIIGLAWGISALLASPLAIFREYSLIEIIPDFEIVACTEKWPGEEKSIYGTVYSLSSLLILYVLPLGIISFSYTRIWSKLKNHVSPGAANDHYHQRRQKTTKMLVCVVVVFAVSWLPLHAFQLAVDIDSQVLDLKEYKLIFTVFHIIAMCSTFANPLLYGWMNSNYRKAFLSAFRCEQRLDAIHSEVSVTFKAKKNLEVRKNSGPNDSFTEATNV
Procedure, shortened: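 Agonism measured as [35S]GTPγS binding, read by GF/C filtration and scintillation counting after 120 min at room temperature, using human Y2 membranes at 1 μg protein/mL in pH 7.4 Tris/MgCl2/NaCl/GDP buffer. Compound serially diluted 100 μM–1 nM; EC50 normalized to PYY(3-36) (ratio = compound/PYY).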

human Y2 receptor [2] = target: T1, human Y2 receptor; experiment: Receptor Binding Assay (RBA) for Human Y2, [125I]-PYY displacement on hY2R/CHO membrane fraction; details: IC50 of test compound/IC50 of PYY(3-36) (PYY(3-36) taken as 1)
Procedure, shortened: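 hY2R stably expressed in CHO/dhfr− cells; membrane fraction prepared from cells disrupted in 10 mM NaHCO3, 5 mM EDTA buffer with protease inhibitors. Binding read as displacement of [125I]-PYY.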

Row | Substance | food intake suppression rate (%) (male C57EL/6J mice) | GBA EC50 Ratio (human Y2 receptor [1]) | RBA IC50 Ratio (human Y2 receptor [2])
1 | [(1S)-1-Carboxyethyl]carbamoyl-[D-Pro24, Pya(4)26, Cha27,36, Aib28,31, Lys30]-PYY(23-36) ({((1S)-1-Carboxyethyl)carbamoyl}-S[dP]R[4Pal][Cha][Aib]NK[Aib]TRQR[Cha]-NH2; SMILES C[C@H](NC(=O)N[C@@H](CO)C(=O)N1CCC[C@@H]1C(=O)N[C@@H](CCCNC(=N)N)C(=O)N[C@@H](Cc1ccncc1)C(=O)N[C@@H](CC1CCCCC1)C(=O)NC(C)(C)C(=O)N[C@@H](CC(N)=O)C(=O)N[C@@H](CCCCN)C(=O)NC(C)(C)C(=O)N[C@H](C(=O)N[C@@H](CCCNC(=N)N)C(=O)N[C@@H](CCC(N)=O)C(=O)N[C@@H](CCCNC(=N)N)C(=O)N[C@@H](CC1CCCCC1)C(N)=O)[C@@H](C)O)C(=O)O) [compound No. 286] | 37% | 0.94 | 0.78
2 | Ac-[D-Hyp24, Iva25, Pya(4)26, Cha27,36, Aib28,31, Lys30]-PYY(23-36) (Ac-S[dHyp][Iva][4Pal][Cha][Aib]NK[Aib]TRQR[Cha]-NH2; SMILES CC[C@](C)(NC(=O)[C@H]1C[C@H](O)CN1C(=O)[C@H](CO)NC(C)=O)C(=O)N[C@@H](Cc1ccncc1)C(=O)N[C@@H](CC1CCCCC1)C(=O)NC(C)(C)C(=O)N[C@@H](CC(N)=O)C(=O)N[C@@H](CCCCN)C(=O)NC(C)(C)C(=O)N[C@H](C(=O)N[C@@H](CCCNC(=N)N)C(=O)N[C@@H](CCC(N)=O)C(=O)N[C@@H](CCCNC(=N)N)C(=O)N[C@@H](CC1CCCCC1)C(N)=O)[C@@H](C)O) [compound No. 297] | 45% | 1.4 | 1.5
3 | (Tetrahydro-2H-pyran-4-yl)carbonyl-[D-Pro24, Pya(4)26, Cha27,36, Aib28,31, Lys30]-PYY(23-36) (Tetrahydropyran4carbonyl-S[dP]R[4Pal][Cha][Aib]NK[Aib]TRQR[Cha]-NH2; SMILES C[C@@H](O)[C@H](NC(=O)C(C)(C)NC(=O)[C@H](CCCCN)NC(=O)[C@H](CC(N)=O)NC(=O)C(C)(C)NC(=O)[C@H](CC1CCCCC1)NC(=O)[C@H](Cc1ccncc1)NC(=O)[C@H](CCCNC(=N)N)NC(=O)[C@H]1CCCN1C(=O)[C@H](CO)NC(=O)C1CCOCC1)C(=O)N[C@@H](CCCNC(=N)N)C(=O)N[C@@H](CCC(N)=O)C(=O)N[C@@H](CCCNC(=N)N)C(=O)N[C@@H](CC1CCCCC1)C(N)=O) [compound No. 324] | 42% | 0.71 | 1.1
4 | Ac-[D-Pro24, Pya(4)26, Cha27,36, Aib28,31, Arg(Me)30]-PYY(23-36) (Ac-S[dP]R[4Pal][Cha][Aib]N[Arg(Me)][Aib]TRQR[Cha]-NH2) [compound No. 314] | 21% | 1.2 | 1.1
5 | 4-Pyridinecarbonyl-[D-Pro24, Iva25, Pya(4)26, Cha27,36, Aib28,31, Lys30]-PYY(23-36) (Isonicotinoyl-S[dP][Iva][4Pal][Cha][Aib]NK[Aib]TRQR[Cha]-NH2; SMILES CC[C@](C)(NC(=O)[C@H]1CCCN1C(=O)[C@H](CO)NC(=O)c1ccncc1)C(=O)N[C@@H](Cc1ccncc1)C(=O)N[C@@H](CC1CCCCC1)C(=O)NC(C)(C)C(=O)N[C@@H](CC(N)=O)C(=O)N[C@@H](CCCCN)C(=O)NC(C)(C)C(=O)N[C@H](C(=O)N[C@@H](CCCNC(=N)N)C(=O)N[C@@H](CCC(N)=O)C(=O)N[C@@H](CCCNC(=N)N)C(=O)N[C@@H](CC1CCCCC1)C(N)=O)[C@@H](C)O) [compound No. 301] | 35% | 1.1 | 1.0
6 | 2-Methylbutanoyl-[D-Pro24, Pya(4)26, Cha27,36, Aib28,31, Lys30]-PYY(23-36) ({2‑methylbutanoyl}-S[dP]R[4Pal][Cha][Aib]NK[Aib]TRQR[Cha]-NH2) [compound No. 276] | 16% | 0.78 | 0.54
7 | 4-Imidazolecarbonyl-[D-Pro24, Iva25, Pya(4)26, Cha27,30,36, Aib28,31]-PYY(23-36) (Imidazole4carbonyl-S[dP][Iva][4Pal][Cha][Aib]N[Cha][Aib]TRQR[Cha]-NH2; SMILES CC[C@](C)(NC(=O)[C@H]1CCCN1C(=O)[C@H](CO)NC(=O)c1cnc[nH]1)C(=O)N[C@@H](Cc1ccncc1)C(=O)N[C@@H](CC1CCCCC1)C(=O)NC(C)(C)C(=O)N[C@@H](CC(N)=O)C(=O)N[C@@H](CC1CCCCC1)C(=O)NC(C)(C)C(=O)N[C@H](C(=O)N[C@@H](CCCNC(=N)N)C(=O)N[C@@H](CCC(N)=O)C(=O)N[C@@H](CCCNC(=N)N)C(=O)N[C@@H](CC1CCCCC1)C(N)=O)[C@@H](C)O) [compound No. 318] | 18% | 1.9 | 2.3
8 | Ac-[D-Pro24, Pya(4)26, Cha27, Aib28,31, Lys30, Phe(2,6-Me2)36]-PYY(23-36) (Ac-S[dP]R[4Pal][Cha][Aib]NK[Aib]TRQR[Phe(2,6-Me2)]-NH2; SMILES CC(=O)N[C@@H](CO)C(=O)N1CCC[C@@H]1C(=O)N[C@@H](CCCNC(=N)N)C(=O)N[C@@H](Cc1ccncc1)C(=O)N[C@@H](CC1CCCCC1)C(=O)NC(C)(C)C(=O)N[C@@H](CC(N)=O)C(=O)N[C@@H](CCCCN)C(=O)NC(C)(C)C(=O)N[C@H](C(=O)N[C@@H](CCCNC(=N)N)C(=O)N[C@@H](CCC(N)=O)C(=O)N[C@@H](CCCNC(=N)N)C(=O)N[C@@H](Cc1c(C)cccc1C)C(N)=O)[C@@H](C)O) [compound No. 329] | 51% | 0.59 | 0.52
9 | 4-Pyridinecarbonyl-[D-Hyp24, Iva25,28, Pya(4)26, Cha27,36, Lys30, Aib31]-PYY (23-36) (Isonicotinoyl-S[dHyp][Iva][4Pal][Cha][Iva]NK[Aib]TRQR[Cha]-NH2; SMILES CC[C@](C)(NC(=O)[C@H](CC1CCCCC1)NC(=O)[C@H](Cc1ccncc1)NC(=O)[C@](C)(CC)NC(=O)[C@H]1C[C@H](O)CN1C(=O)[C@H](CO)NC(=O)c1ccncc1)C(=O)N[C@@H](CC(N)=O)C(=O)N[C@@H](CCCCN)C(=O)NC(C)(C)C(=O)N[C@H](C(=O)N[C@@H](CCCNC(=N)N)C(=O)N[C@@H](CCC(N)=O)C(=O)N[C@@H](CCCNC(=N)N)C(=O)N[C@@H](CC1CCCCC1)C(N)=O)[C@@H](C)O) [compound No. 334] | 14% | 1.6 | 1.3
10 | (cis-2,6-Dimethylmorpholin-4-yl)carbonyl-[D-Pro24, Pya(4)26, Cha27,36, Aib28,31, Lys30]-PYY(23-36) (X9-S[dP]R[4Pal][Cha][Aib]NK[Aib]TRQR[Cha]-NH2; SMILES C[C@@H]1CN(C(=O)N[C@@H](CO)C(=O)N2CCC[C@@H]2C(=O)N[C@@H](CCCNC(=N)N)C(=O)N[C@@H](Cc2ccncc2)C(=O)N[C@@H](CC2CCCCC2)C(=O)NC(C)(C)C(=O)N[C@@H](CC(N)=O)C(=O)N[C@@H](CCCCN)C(=O)NC(C)(C)C(=O)N[C@H](C(=O)N[C@@H](CCCNC(=N)N)C(=O)N[C@@H](CCC(N)=O)C(=O)N[C@@H](CCCNC(=N)N)C(=O)N[C@@H](CC2CCCCC2)C(N)=O)[C@@H](C)O)C[C@H](C)O1) [compound 269] | 11% | 0.65 | 0.91
11 | Ac-[D-Pro24, Iva25, Pya(4)26, Cha27,36, Leu(Me)28, Lys30, Aib31]-PYY(23-36) [compound No. 295] | 52% | 1.2 | 0.76
12 | (Tetrahydro-2H-pyran-4-yl)carbamoyl-[D-Pro24, Iva25, Pya(4)26, Cha27,36, Aib28,31, Lys30]-PYY(23-36) (X7-S[dP][Iva][4Pal][Cha][Aib]NK[Aib]TRQR[Cha]-NH2; SMILES CC[C@](C)(NC(=O)[C@H]1CCCN1C(=O)[C@H](CO)NC(=O)NC1CCOCC1)C(=O)N[C@@H](Cc1ccncc1)C(=O)N[C@@H](CC1CCCCC1)C(=O)NC(C)(C)C(=O)N[C@@H](CC(N)=O)C(=O)N[C@@H](CCCCN)C(=O)NC(C)(C)C(=O)N[C@H](C(=O)N[C@@H](CCCNC(=N)N)C(=O)N[C@@H](CCC(N)=O)C(=O)N[C@@H](CCCNC(=N)N)C(=O)N[C@@H](CC1CCCCC1)C(N)=O)[C@@H](C)O) [compound No. 330] | 36% | 1.8 | 1.7
